Source: patent EP4559937A1 (Universitat de Barcelona, dated 2025)

T1: Recombinant CD7 protein (ACRO biosystems, Cat No CD-H52H7), labeled with Alexa Fluor 647 (UniProt P09564 26-180, limits assumed, Alexa Fluor 647 NHS Ester label, sites not stated)
T1 construct: Bought protein; also called fluorescently labelled CD7; Alexa Fluor 647-labeled CD7
T1 sequence (looked up): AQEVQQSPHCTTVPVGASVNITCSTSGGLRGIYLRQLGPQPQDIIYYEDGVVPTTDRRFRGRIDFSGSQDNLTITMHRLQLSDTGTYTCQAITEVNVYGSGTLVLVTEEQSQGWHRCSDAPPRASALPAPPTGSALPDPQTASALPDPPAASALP

B1: 142.9 murine anti-CD7 mAb (antibody, V domains shown)
VH: QVQLQQSGAELVRPGTSVKISCKASGYTFTNYWLGWVKQRPGHGLEWIGDFYPGSIYTNYNENFQGKATLTADTSSSTAYMQLSSLTSEDSAVYFCAREGDYYGSGHFDYWGQGTTLTVSS
VL: EILLTQSPAIIAASPGEKVTITCSARSSVSYMNWYQQKSGSSPKIWIYGISNLASGVPARFSGSGSGTSFSFTINSMEAEDVAYYYCQLRSSYSRTFGGGTKLEIK
notes: Murine monoclonal antibody, tested as hybridoma culture supernatant; also called CD7_142.9
B2: 142.24 murine anti-CD7 mAb (antibody, V domains shown)
VH: QLVQSGPEVKKPGETVKISCKASGYSFTHYGVNWVKQAPGKGLKWMGWINTNTGKPTYAEDFKGRFAFSLETSARTAYLQINNLKNEDTATYFCARWSTTVVAPYFDVWGAGTTVTVSS
VL: DILLTQSPAILSVSPGERVSFSCRASQNIGTSIHWFQQRSNGSPSLLIKYASESMSGIPSRFSGSGSGTDFTLSINSVEPEDIADYYCQQSNRWPYTFGGGTKLEIK
notes: Murine monoclonal antibody, tested as hybridoma culture supernatant; also called CD7_142.24
B3: 124.1D1 murine anti-CD7 mAb (antibody, V domains shown)
VH: DVQLQESGPGLVKPSQSLSLTCTVTGYSITSDYAWNWIRQFPGNKLEWLGYISYSGSTSYNPSLKSRISITRDTSKNQFFLQLNSVTTEDTATYYCAKSQLGRWAMDYWGQGTSVTVSS
VL: DILLTQSPAILSVSPGERVSFSCRASQSIGTSIHWYQQRTNDSPRLLIKYASESISGIPSRFSGSGSGTDFTLNINSVESEDIADYYCQQSISWPLTFGPGTKLELK
notes: Murine monoclonal antibody, tested as hybridoma culture supernatant; also called CD7_124.1D1

The binders below were run against T1, Recombinant CD7 protein (ACRO …) (assay: microfluidic antibody-affinity profiling (MAAP), Fluidity One-W, hybridoma supernatant with Alexa Fluor 647-labelled CD7, Bayesian inference).
B1 was tested, and the Kd was 52.4 nM. B2 gave a Kd of 22.4 nM. B3 gave a Kd of 13.6 nM.
